Experimental data reported in patent publication US11994512B2, “Single-cell genomic methods to generate ex vivo cell systems that recapitulate in vivo biology with improved fidelity” (Massachusetts Institute of Technology, priority 2018, dated 2024).

System: intracellular proteome of ENR+CD and ENR organoids
Experiment: LC-MS/MS TMT proteomics of ENR+CD versus ENR organoids
Type: cell-based, C57BL/6 mice
Conditions: for Average logFC: ENR+CD versus ENR organoids, sample pairs in aggregate (n=4, 2 technical replicates from two biological donors); for M1-1 Log2 Median Normalized / M1-2 Log2 Median Normalized / M2-1 Log2 Median Normalized / M2-2 Log2 Median Normalized: protein abundance ratio ENR+CD versus ENR organoids, LC-MS/MS TMT proteomics; for M1-1 Log2 Median Normalized: sample pair M1-1; for M1-2 Log2 Median Normalized: sample pair M1-2; for M2-1 Log2 Median Normalized: sample pair M2-1; for M2-2 Log2 Median Normalized: sample pair M2-2; for change: up = enriched in ENR+CD, down = enriched in ENR, FDR<0.05 and log fold change cut-off

| Molecule | Average logFC | M1-1 Log2 Median Normalized | M1-2 Log2 Median Normalized | M2-1 Log2 Median Normalized | M2-2 Log2 Median Normalized | change |
| --- | --- | --- | --- | --- | --- | --- |
| Q9JHT5 (protein, UniProt Q9JHT5 1-344, looked up, full-length) MAAGCCGVKKQKLSSSPPSGSGGGGGASSSSHCSGESQCRAGELGLGGAGTRLNGLGGLSGGGGSGGGGGCPLSPPQGCGGGGGGGGGGGSGSGGGGISLSPPLSCGVGTLLSTPAAATASSPSSSSSSPGSRKMVVSAEMCCFCFDVLYCHLYGYQQPRTPRFTNEPYPLFVTWKIGRDKRLRGCIGTFSAMNLHSGLREYTLTSALKDSRFPPMTRDELPRLFCSVSLLTNFEDVCDYLDWEVGVHGIRIEFINEKGSKRTATYLPEVAKEQGWDHIQTIDSLLRKGGYKAPITNEFRKTIKLTRYRSEKMTLSYAEYLAHRQHHHFQNGIGHPLPPYNHYS | 1.464 | 1.463 | 1.751 | 1.5015 | 0.056 | up |
| Q9DBG7 (protein, UniProt Q9DBG7 1-636, looked up, full-length) MLDFFTIFSKGGLVLWCFQGVSDSCTGPVNALIRSVLLQERGGNNSFTHEALTLKYKLDNQFELVFVVGFQKILTLTYVDKLIDDVHRLFRDKYRTEIQQQSALSLLNGTFDFQNDFLRLLREAEESSKIRAPTTMKKFEDSEKAKKPVRSMIETRGEKTKEKAKNNKKRGAKKEGSDGTLATSKTAPAEKSGLSAGPENGELSKEELIRRKREEFIQKHGKGLDKSSKSTKSDTPKEKGKKAPRVWELGGCANKEVLDYSTPTTNGTPEAALSEDINLIRGTGPGGQLQDLDCSSSDDEGATQNTKPSATKGTLGGMFGMLKGLVGSKSLSREDMESVLDKMRDHLIAKNVAADIAVQLCESVANKLEGKVMGTFSTVTSTVKQALQESLVQILQPQRRVDMLRDIMDAQRRQRPYVVTFCGVNGVGKSTNLAKISFWLLENGFSVLIAACDTFRAGAVEQLRTHTRRLTALHPPEKHGGRTMVQLFEKGYGKDAAGIAMEAIAFARNQGFDVVLVDTAGRMQDNAPLMTALAKLITVNTPDLVLFVGEALVGNEAVDQLVKFNRALADHSMAQTPRLIDGIVLTKFDTIDDKVGAAISMTYITSKPIVFVGTGQTYCDLRSLNAKAVVAALMKA | 1.192 | 1.346 | 1.118 | 0.9025 | 1.401 | up |
| Q9ERZ0 (protein, UniProt Q9ERZ0 1-503, looked up, full-length) MDMGKGRPRLKLPQMPEAHPQKSCAPDIIGSWSLRNREQLRKRKAEAQGRQTSQWLLGEQKKRKYQRTGKGNKRGRKRQGNVEQKAEPWSQTERERVQEVLVSAEEETEHPGNSATEALPLVPSPTKAVPADQCSEAHQESIQCQERAIQNHSQTHLSPTTCQGIAVLQHSPKMCQDMAEPEVFSPNMCQETAVPQTYPPKALEEMAAAEPLSPKMCQETTVSPNHSSKVPQDMAGPEALSPNMCQEPTVPQEHTLKMCHDVARPEVLSPKTHQEMAVPKAFPCVTPGDAAGLEGCAPKALPQSDVAEGCPLDTTPTSVTPEQTTSDPDLGMAVTEGFFSEARECTVSEGVSTKTHQEAVEPEFISHETYKEFTVPIVSSQKTIQESPEPEQYSPETCQPIPGPENYSLETCHEMSGPEDLSIKTCQDREEPKHSLPEGAQKVGGAQGQDADAQDSENAGAFSQDFTEMEEENKADQDPEAPASPQGSQETCPENGIYSSALF | −1.361 | −1.833 | −1.41 | −1.0155 | −1.185 | down |
| Q9DA97 (protein, UniProt Q9DA97 1-430, looked up, full-length) MAEKPTNTSVPIPGSEDPQKENIRCLSTLGHFGFECLPTQLVNKSIQKGFSFNILCVGETGIGKTTLINTLFNTNLKETKSSHFYSKVGLTVKTYELLERNIPLRLTVVKTVGYGDQINKEASYQPVVDYLDAQFEAYLQEELKIKRSLADYHDSRIHVCLYFITPTGHSLKSLDLLTMKSIDRRVNIIPLIAKADSLSKNDLQRFKNNIMSELNSNGIQIYQFQVDDEASAQVNSSGLLPFAVVGSMEEVKVGKRMVRGRHYPWGVLQEVENENHCDFVKLRDLLLSTNMEDLKDQTHTQHYECYRSNRLQKLGFSDTGPDNRPVSFQEMYEAKRREFHNQCQKEEEELKQTFMQRVKEKELTFKDAEKELQDKFEHLKRIQQEEILKLEEERRKLEEQIIDFYKMKAASESAQAQVCTNIKKDKDRKK | −1.147 | −0.99 | −1.148 | −0.7465 | −2.635 | down |
| Q9JJ78 (protein, UniProt Q9JJ78 1-330, looked up, full-length) MEGINNFKTPNKSEKRKSVLCSTPCVNIPASPFMQKLGFGTGVSVYLMKRSPRGLSHSPWAVKKISLLCDDHYRTVYQKRLTDEAKILKNLNHPNIIGYRAFTEASDGSLCLAMEYGGEKSLNDLIEERNKDSGSPFPAAVILRVALHMARGLKYLHQEKKLLHGDIKSSNVVIKGDFETIKICDVGVSLPLDENMTVTDPEACYIGTEPWKPKEALEENGIITDKADVFAFGLTLWEMMTLCIPHVNLPDDDVDEDATFDESDFDDEAYYAALGTRPSINMEELDDSYQKAIELFCVCTNEDPKDRPSAAHIVEALELDGQCCGLSSKH | −1.167 | −1.497 | −0.959 | −0.7695 | −1.442 | down |
| Q9JIB0 (protein, UniProt Q9JIB0 1-185, looked up, full-length) MEPNRNCPLFGGAFSAILPTGAIDVSDLRPVPDNQEVFCHPVTDQSLIIELLELQAHVQGEAAARYHFEDVGRVQGARAVHVLSVQPLCLENLSLRGCCQDAWSLSGKQQVAKENQQVAKDVTLHQALLRLPQYQTDLLLTFNQPPCHSRSLGPENLSCPPWSLSNFEQLVTSLTLHDPNLFGPQ | −1.426 | −1.2 | −1.555 | −1.6355 | −1.315 | down |
| Q9DD24 (protein, UniProt Q9DD24 1-104, looked up, full-length) MKPCQKMEGNLEKEDEPKPEEEPKPEEKPEEGQEPEEEEKSEETFRERLIRSLQDFQEDIHNRHLSSDDLFRDVEELDEIRKVRNKLIVTRWKANRSHPYPYLM | 1.262 | 1.266 | 0.97 | 1.6605 | 1.153 | up |
| Q9D9Z1 (protein, UniProt Q9D9Z1 1-312, looked up, full-length) MAAPEAEAQETAFRTTGPPTDSEPRPFPPSSRKFPFESAAADSNEDWAVAAEHYLKGSGENGGWEQPAPGVQPSHPATMASAKTVCDAQPHSMPSCGLPADTQTRATSKLPVKSKEADLLRHLHPGGPEPDVTKVTKSRRENGQVKAAETASRRNLRNSYKPFNKQKPEEELKDKNELLEAVNKQLHQKLTETQGELKDLTQKVELLEKFQDNCLALLESKGLNPGQETLASKQEPTTDHTDSMLLLETLKDELKVFNETAKKQMEELQALKVKLKLKEEESVQFLEQQTLCKDEASDFTIILEEMEQLLEM | −1.13 | −1.473 | −0.579 | −0.8635 | −1.605 | down |
| Q9EPC5 (protein, UniProt Q9EPC5 1-134, looked up, full-length) MPADLSGTWNLLSSDNFEGYMLALGIDFATRKIAKLLKPQKVIEQNGDSFTIQTCSSLRNYLVKFKVGEEFEEDNKGLDNRKCTSLVTWENDKLTCVQRGEKKNRGWSHWIEGDQLHLEMFCEGQVCKQTFQRA | −2.14 | −2.063 | −2.064 | −2.2365 | −2.196 | down |
| Q9ERH4 (protein, UniProt Q9ERH4 1-427, looked up, full-length) MTVPSAEELDSFKYSDLQNLAKRLGLRANMKADKLLKALKAHLNPETRKENKNQDENQFSTDETEIHVSSEEQAETESGGHVTKTRRRRRKKHKTIHGIPTSQTLLQDHLEMKGTDSSNFQNQENQENQDPRDTAEVPSLPEQRPEDGNAASSGEGEVNDIKDSKKPLEKRSLCTDEFSKLGNNKRTSATTPNFKKLHEARFKKMESIDEYIMRKKKHLKEHSSLNELKLDKKGIVTPVPPRGRLSVPCTPARQQCPQGHSATKMNVRFSAATKDNEHKCSLTKTPARKSPHVTAPGSASKGQAVFRTPKSKATERTSIAVITPFKLMTEATQTPSSSKKPVFDLKASLSRPLNYKPHKGKLKPWGQAKENNSLNERVSRVTFHRKTYKQPHLQTREERWKRQEQERKEKKEKLLEARRNLGVTKAQ | −1.264 | −1.354 | −0.911 | −1.2565 | −1.536 | down |
| Q9DCT8 (protein, UniProt Q9DCT8 1-208, looked up, full-length) MASKCPKCDKTVYFAEKVSSLGKDWHKFCLKCERCNKTLTPGGHAEHDGKPFCHKPCYATLFGPKGVNIGGAGSYIYEKPQTEAPQVTGPIEVPVVRTEERKTSGPPKGPSKASSVTTFTGEPNMCPRCNKRVYFAEKVTSLGKDWHRPCLRCERCSKTLTPGGHAEHDGQPYCHKPCYGILFGPKGVNTGAVGSYIYDKDPEGTVQP | 1.386 | 1.983 | 1.517 | 0.9975 | 1.047 | up |
| Q9D8W7 (protein, UniProt Q9D8W7 1-154, looked up, full-length) MASVSTHGNQEKSPHLPPLSKQSLLFCPKSKLHIHRGEIAKIIRECQEESFWKRALPFSLISMLVTQGLVHQGYLAANPRFGSLPKVALAGLLGFGLGKASYIRVCQSKFHSFEDQLRGAGFGPEHNRHCLLTCEDCKTRRGLSEKAGSQPSAS | −1.397 | −0.573 | −1.182 | −1.9045 | −1.927 | down |
